Publication PMC9889334
pKd: −log10 of the molar value.

Key:
[1] = target: PaPcc2 with C-terminal hexa-histidine tag (Pyrococcus abyssi Pcc2) (Pyrococcus abyssi); assay: SEC; Ni-NTA eluate on HiLoad 16/600 Superdex 200 pg or Superdex 75 pg; 20 mM Tris-HCl pH 8, 500 mM KCl, 10% glycerol, 5 mM ß-mercaptoethanol
[2] = target: PaCgi121;PaBud32;PaKae1;PaPcc1-His6;PaPcc2-Strep (Pyrococcus abyssi;Pyrococcus abyssi;Pyrococcus abyssi;Pyrococcus abyssi;Pyrococcus abyssi) (UniProt Q9UZ62+Q9UYB9+Q9UXT7+Q9V1Z9+A0A915Q984); assay: fluorescence anisotropy; settings: CBKP1P2 complex; 3 mM Mg2+; n=3; 20 mM Tris-HCl pH 8, 150 mM KCl, 3 mM MgCl2, 1% glycerol, 1 nM labelled tRNA (10 nM in Suppl. Fig. 7C), 20 °C, 15 min
[3] = target: PaCgi121;PaBud32;PaKae1;PaPcc2-His6 (Pyrococcus abyssi;Pyrococcus abyssi;Pyrococcus abyssi;Pyrococcus abyssi) (UniProt Q9UZ62+Q9UYB9+Q9UXT7+A0A915Q983); assay: fluorescence anisotropy; settings: CBKP2 complex; 3 mM Mg2+; 10 nM tRNA (Suppl. Fig. 7C); 20 mM Tris-HCl pH 8, 150 mM KCl, 3 mM MgCl2, 1% glycerol, 1 nM labelled tRNA (10 nM in Suppl. Fig. 7C), 20 °C, 15 min
PaCgi121;PaBud32;PaKae1;PaPcc2-His6 (Pyrococcus abyssi;Pyrococcus abyssi;Pyrococcus abyssi;Pyrococcus abyssi), sequence (Q9UZ62 whole entry, chain 1 of 4): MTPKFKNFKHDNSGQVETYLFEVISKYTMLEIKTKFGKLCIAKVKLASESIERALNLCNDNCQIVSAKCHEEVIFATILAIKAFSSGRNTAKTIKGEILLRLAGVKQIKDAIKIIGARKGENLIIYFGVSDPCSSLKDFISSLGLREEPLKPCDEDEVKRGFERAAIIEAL
PaCgi121;PaBud32;PaKae1;PaPcc2-His6 (Pyrococcus abyssi;Pyrococcus abyssi;Pyrococcus abyssi;Pyrococcus abyssi), sequence (Q9UYB9 whole entry, chain 2 of 4): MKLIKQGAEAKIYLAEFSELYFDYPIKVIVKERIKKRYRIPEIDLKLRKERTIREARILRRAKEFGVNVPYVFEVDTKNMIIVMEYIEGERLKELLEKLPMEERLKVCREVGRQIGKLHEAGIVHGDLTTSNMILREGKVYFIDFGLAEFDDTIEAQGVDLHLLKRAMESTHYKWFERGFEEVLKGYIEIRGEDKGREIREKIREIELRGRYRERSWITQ
PaCgi121;PaBud32;PaKae1;PaPcc2-His6 (Pyrococcus abyssi;Pyrococcus abyssi;Pyrococcus abyssi;Pyrococcus abyssi), sequence (Q9UXT7 whole entry, chain 3 of 4): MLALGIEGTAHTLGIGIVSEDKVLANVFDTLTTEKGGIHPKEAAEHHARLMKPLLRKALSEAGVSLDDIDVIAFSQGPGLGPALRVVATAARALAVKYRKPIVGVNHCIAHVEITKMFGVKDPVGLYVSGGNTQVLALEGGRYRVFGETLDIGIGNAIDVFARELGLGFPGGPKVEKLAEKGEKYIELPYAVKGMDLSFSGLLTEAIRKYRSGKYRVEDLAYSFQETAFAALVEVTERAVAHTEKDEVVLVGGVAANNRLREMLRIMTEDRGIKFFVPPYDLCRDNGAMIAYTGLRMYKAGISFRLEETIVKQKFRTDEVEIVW
PaCgi121;PaBud32;PaKae1;PaPcc2-His6 (Pyrococcus abyssi;Pyrococcus abyssi;Pyrococcus abyssi;Pyrococcus abyssi), sequence (chain, as listed by the source, chain 4 of 4): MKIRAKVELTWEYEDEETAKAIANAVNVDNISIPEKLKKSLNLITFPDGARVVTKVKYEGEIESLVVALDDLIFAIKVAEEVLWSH

[4] = target: CBKP2, PaKEOPS complex with PaPcc2 in place of PaPcc1 (PaCgi121/PaBud32/PaKae1/PaPcc2) (Pyrococcus abyssi) (UniProt Q9UXT7); assay: SEC-SAXS; purified complexes loaded at 2.55 (CBKP1P2), 0.72 (CBKP1) and 3 mg/ml (CBKP2) on a Bio-SEC3 column; 20 mM Tris pH 8.5, 300 mM NaCl, 5 mM 2-mercaptoethanol, 5% glycerol

Substance “PaPcc2 with C-terminal hexa-histidine tag (Pyrococcus abyssi Pcc2) (natural protein)” has a stoichiometry N [1] of 2.

With “GGGCCGGUAGCUCAGCCUGGUCAGAGCACCGGGCUUUUAACCCGGUGGUCGCGGGUUCAAAUCCCGCCCGGCCCGCCA [Pa_tRNALys (UUU)]” the pKd [2] was 7.00 and the pKd [3] was 5.74.

“CBKP2, PaKEOPS complex with PaPcc2 in place of PaPcc1 (PaCgi121/PaBud32/PaKae1/PaPcc2) (from UniProt Q9UXT7 1-324)” showed a stoichiometry N [4] of 2.
